Laboratory results: article PMC10786891, “Massively parallel profiling of RNA-targeting CRISPR-Cas13d”

T1: EsCas13d, nuclease-dead (Eubacterium siraeum, UniProt B0MS50, R295A;H300A;R849A;H854A)
T1 sequence: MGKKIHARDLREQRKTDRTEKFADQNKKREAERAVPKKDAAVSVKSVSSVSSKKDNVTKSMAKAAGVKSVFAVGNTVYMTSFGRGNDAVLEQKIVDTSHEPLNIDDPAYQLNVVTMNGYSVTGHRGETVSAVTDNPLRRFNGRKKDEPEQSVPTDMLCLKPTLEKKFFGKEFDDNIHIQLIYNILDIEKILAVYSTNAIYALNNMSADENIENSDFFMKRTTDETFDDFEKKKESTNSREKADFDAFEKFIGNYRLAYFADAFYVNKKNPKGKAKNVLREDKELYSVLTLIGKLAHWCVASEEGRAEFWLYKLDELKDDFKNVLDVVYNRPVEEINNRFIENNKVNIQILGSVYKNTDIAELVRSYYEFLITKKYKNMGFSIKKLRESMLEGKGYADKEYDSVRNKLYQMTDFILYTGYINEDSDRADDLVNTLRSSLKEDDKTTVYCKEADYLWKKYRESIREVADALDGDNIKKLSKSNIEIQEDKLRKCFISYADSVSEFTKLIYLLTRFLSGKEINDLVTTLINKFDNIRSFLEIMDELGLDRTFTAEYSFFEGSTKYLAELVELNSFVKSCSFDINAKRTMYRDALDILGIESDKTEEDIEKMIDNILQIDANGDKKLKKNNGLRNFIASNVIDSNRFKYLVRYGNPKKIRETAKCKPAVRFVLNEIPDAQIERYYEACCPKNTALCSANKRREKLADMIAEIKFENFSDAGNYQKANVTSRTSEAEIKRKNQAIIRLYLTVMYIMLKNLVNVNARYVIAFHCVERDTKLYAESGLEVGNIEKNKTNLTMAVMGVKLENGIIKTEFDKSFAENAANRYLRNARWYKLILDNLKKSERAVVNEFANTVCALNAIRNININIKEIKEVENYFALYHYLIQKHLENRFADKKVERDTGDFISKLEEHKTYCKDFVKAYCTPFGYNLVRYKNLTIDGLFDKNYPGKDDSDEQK

B1: target 1 U3A,G17A (mixed)
RNA 1: CACCCGUGCAAAAAUGCAGGGGUCUAAAACUGAGCGGAUAACCUCUCUAUGG
RNA 2: GGGAAUGGAUCCACAUCUACGAAUUCGUACCAUAAAGAGGUUAUCCGCACACCGAGAUCGGAAGAGCACACGU
B2: target 1 complement block 1-4 (mixed)
RNA 1: CACCCGUGCAAAAAUGCAGGGGUCUAAAACUGAGCGGAUAACCUCUCUAUGG
RNA 2: GGGAAUGGAUCCACAUCUACGAAUUCGUACCAUAGAGAGGUUAUCCGGAGUCCGAGAUCGGAAGAGCACACGU
B3: target 1 insC 3' of 20,insG 3' of 1 (mixed)
RNA 1: CACCCGUGCAAAAAUGCAGGGGUCUAAAACUGAGCGGAUAACCUCUCUAUGG
RNA 2: GGGAAUGGAUCCACAUCUACGAAUUCGUACCACUAGAGAGGUUAUCCGCUCAGCCGAGAUCGGAAGAGCACACGU
B4: target 1 U3A,A9G (mixed)
RNA 1: CACCCGUGCAAAAAUGCAGGGGUCUAAAACUGAGCGGAUAACCUCUCUAUGG
RNA 2: GGGAAUGGAUCCACAUCUACGAAUUCGUACCAUAGAGAGGUUGUCCGCACACCGAGAUCGGAAGAGCACACGU
B5: target 1 insC 3' of 22,insA 3' of 3 (mixed)
RNA 1: CACCCGUGCAAAAAUGCAGGGGUCUAAAACUGAGCGGAUAACCUCUCUAUGG
RNA 2: GGGAAUGGAUCCACAUCUACGAAUUCGUACCCAUAGAGAGGUUAUCCGCUACACCGAGAUCGGAAGAGCACACGU
B6: target 1 A16C,G17A (mixed)
RNA 1: CACCCGUGCAAAAAUGCAGGGGUCUAAAACUGAGCGGAUAACCUCUCUAUGG
RNA 2: GGGAAUGGAUCCACAUCUACGAAUUCGUACCAUAACGAGGUUAUCCGCUCACCGAGAUCGGAAGAGCACACGU
B7: target 1 A16C,C22A (mixed)
RNA 1: CACCCGUGCAAAAAUGCAGGGGUCUAAAACUGAGCGGAUAACCUCUCUAUGG
RNA 2: GGGAAUGGAUCCACAUCUACGAAUUCGUAACAUAGCGAGGUUAUCCGCUCACCGAGAUCGGAAGAGCACACGU
B8: target 1 C2G,C6U (mixed)
RNA 1: CACCCGUGCAAAAAUGCAGGGGUCUAAAACUGAGCGGAUAACCUCUCUAUGG
RNA 2: GGGAAUGGAUCCACAUCUACGAAUUCGUACCAUAGAGAGGUUAUCUGCUGACCGAGAUCGGAAGAGCACACGU
B9: target 1 C4A,A16G (mixed)
RNA 1: CACCCGUGCAAAAAUGCAGGGGUCUAAAACUGAGCGGAUAACCUCUCUAUGG
RNA 2: GGGAAUGGAUCCACAUCUACGAAUUCGUACCAUAGGGAGGUUAUCCGAUCACCGAGAUCGGAAGAGCACACGU
B10: target 1 C6G,A16U (mixed)
RNA 1: CACCCGUGCAAAAAUGCAGGGGUCUAAAACUGAGCGGAUAACCUCUCUAUGG
RNA 2: GGGAAUGGAUCCACAUCUACGAAUUCGUACCAUAGUGAGGUUAUCGGCUCACCGAGAUCGGAAGAGCACACGU
B11: target 1 A9G,U11A (mixed)
RNA 1: CACCCGUGCAAAAAUGCAGGGGUCUAAAACUGAGCGGAUAACCUCUCUAUGG
RNA 2: GGGAAUGGAUCCACAUCUACGAAUUCGUACCAUAGAGAGGAUGUCCGCUCACCGAGAUCGGAAGAGCACACGU
B12: target 1 insG 3' of 16,insU 3' of 7 (mixed)
RNA 1: CACCCGUGCAAAAAUGCAGGGGUCUAAAACUGAGCGGAUAACCUCUCUAUGG
RNA 2: GGGAAUGGAUCCACAUCUACGAAUUCGUACCAUAGAGGAGGUUAUCUCGCUCACCGAGAUCGGAAGAGCACACGU
B13: target 1 C2G,U11G (mixed)
RNA 1: CACCCGUGCAAAAAUGCAGGGGUCUAAAACUGAGCGGAUAACCUCUCUAUGG
RNA 2: GGGAAUGGAUCCACAUCUACGAAUUCGUACCAUAGAGAGGGUAUCCGCUGACCGAGAUCGGAAGAGCACACGU
B14: target 1 A9G,A20U (mixed)
RNA 1: CACCCGUGCAAAAAUGCAGGGGUCUAAAACUGAGCGGAUAACCUCUCUAUGG
RNA 2: GGGAAUGGAUCCACAUCUACGAAUUCGUACCUUAGAGAGGUUGUCCGCUCACCGAGAUCGGAAGAGCACACGU
B15: target 1 insC 3' of 10,insC 3' of 5 (mixed)
RNA 1: CACCCGUGCAAAAAUGCAGGGGUCUAAAACUGAGCGGAUAACCUCUCUAUGG
RNA 2: GGGAAUGGAUCCACAUCUACGAAUUCGUACCAUAGAGAGGUUCAUCCGCCUCACCGAGAUCGGAAGAGCACACGU
B16: target 1 del5,del9 (mixed)
RNA 1: CACCCGUGCAAAAAUGCAGGGGUCUAAAACUGAGCGGAUAACCUCUCUAUGG
RNA 2: GGGAAUGGAUCCACAUCUACGAAUUCGUACCAUAGAGAGGUUUCCCUCACCGAGAUCGGAAGAGCACACGU
B17: target 1 insC 3' of 17,insA 3' of 13 (mixed)
RNA 1: CACCCGUGCAAAAAUGCAGGGGUCUAAAACUGAGCGGAUAACCUCUCUAUGG
RNA 2: GGGAAUGGAUCCACAUCUACGAAUUCGUACCAUAGCAGAGAGUUAUCCGCUCACCGAGAUCGGAAGAGCACACGU
B18: target 1 insG 3' of 22,insC 3' of 17 (mixed)
RNA 1: CACCCGUGCAAAAAUGCAGGGGUCUAAAACUGAGCGGAUAACCUCUCUAUGG
RNA 2: GGGAAUGGAUCCACAUCUACGAAUUCGUACGCAUAGCAGAGGUUAUCCGCUCACCGAGAUCGGAAGAGCACACGU
B19: target 1 insA 3' of 21,insC 3' of 3 (mixed)
RNA 1: CACCCGUGCAAAAAUGCAGGGGUCUAAAACUGAGCGGAUAACCUCUCUAUGG
RNA 2: GGGAAUGGAUCCACAUCUACGAAUUCGUACCAAUAGAGAGGUUAUCCGCUCCACCGAGAUCGGAAGAGCACACGU
B20: target 1 insU 3' of 20,insG 3' of 2 (mixed)
RNA 1: CACCCGUGCAAAAAUGCAGGGGUCUAAAACUGAGCGGAUAACCUCUCUAUGG
RNA 2: GGGAAUGGAUCCACAUCUACGAAUUCGUACCAUUAGAGAGGUUAUCCGCUCGACCGAGAUCGGAAGAGCACACGU
B21: target 1 insU 3' of 6,insA 3' of 5 (mixed)
RNA 1: CACCCGUGCAAAAAUGCAGGGGUCUAAAACUGAGCGGAUAACCUCUCUAUGG
RNA 2: GGGAAUGGAUCCACAUCUACGAAUUCGUACCAUAGAGAGGUUAUCCUGACUCACCGAGAUCGGAAGAGCACACGU
B22: target 1 insG 3' of 16,insC 3' of 13 (mixed)
RNA 1: CACCCGUGCAAAAAUGCAGGGGUCUAAAACUGAGCGGAUAACCUCUCUAUGG
RNA 2: GGGAAUGGAUCCACAUCUACGAAUUCGUACCAUAGAGGAGCGUUAUCCGCUCACCGAGAUCGGAAGAGCACACGU
B23: target 1 insG 3' of 18,insU 3' of 7 (mixed)
RNA 1: CACCCGUGCAAAAAUGCAGGGGUCUAAAACUGAGCGGAUAACCUCUCUAUGG
RNA 2: GGGAAUGGAUCCACAUCUACGAAUUCGUACCAUAGGAGAGGUUAUCUCGCUCACCGAGAUCGGAAGAGCACACGU
B24: target 1 C2U,G5U (mixed)
RNA 1: CACCCGUGCAAAAAUGCAGGGGUCUAAAACUGAGCGGAUAACCUCUCUAUGG
RNA 2: GGGAAUGGAUCCACAUCUACGAAUUCGUACCAUAGAGAGGUUAUCCUCUUACCGAGAUCGGAAGAGCACACGU

Molecular target: T1, EsCas13d, nuclease-dead
Assay: crRNA (strand 1, pre-loaded); Mg2+; 40 mM Tris-HCl pH 7.5, 150 mM NaCl, 6 mM MgCl2, 1 mM DTT, 0.1% Tween-20, 0.2 mg/ml BSA; 25 C; 10 min per concentration, then washed
Settings: tags: His6-TwinStrep-SUMO cleaved; N-terminal SNAP kept (SNAP-Surface 488); label: 3' end held by stalled T7 RNA polymerase

Binder	Kd
B1	46 ± 5 nM
B2	5.46 ± 0.29 nM
B3	9.3 ± 0.4 nM
B4	7.34 ± 0.29 nM
B5	11.8 ± 0.5 nM
B6	52 ± 4 nM
B7	71 ± 7 nM
B8	4.97 ± 0.22 nM
B9	17.2 ± 1.5 nM
B10	40.9 ± 3.4 nM
B11	42.7 ± 3.1 nM
B12	22.8 ± 1.8 nM
B13	11 ± 0.6 nM
B14	48 ± 8 nM
B15	11.1 ± 1.1 nM
B16	15.9 ± 0.6 nM
B17	22.3 ± 2.4 nM
B18	~70 nM
B19	13.2 ± 0.7 nM
B20	11.7 ± 0.5 nM
B21	24 ± 2 nM
B22	34 ± 4 nM
B23	67 ± 8 nM
B24	23.2 ± 1 nM
